Measured values taken from doi:10.1101/2025.08.30.673307 (bioRxiv, 2025).

Target: the molecule itself
Test: cryo-EM structure

B1: stomatin (STOM) fused at its C terminus with a Twin-Strep tag (natural protein, human, UniProt P27105 1-288, looked up)
chain: MAEKRHTRDSEAQRLPDSFKDSPSKGLGPCGWILVAFSFLFTVITFPISIWMCIKIIKEYERAIIFRLGRILQGGAKGPGLFFILPCTDSFIKVDMRTISFDIPPQEILTKDSVTISVDGVVYYRVQNATLAVANITNADSATRLLAQTTLRNVLGTKNLSQILSDREEIAHNMQSTLDDATDAWGIKVERVEIKDVKLPVQLQRAMAAEAEASREARAKVIAAEGEMNASRALKEASMVITESPAALQLRYLQTLTTIAAEKNSTIVFPLPIDMLQGIIGAKHSHLG
stoichiometry N: 16 subunits
